Assay results reported in US20230212289A1.

Molecular target: CD3 (antigen of the binding affinity table of Example 1) (UniProt P07766)
Test: kinetic fit with two-state parameters; method not given

Kd | ka2 | kd2 | koff | kon | Molecule
7.6 nM | 0.00709 s⁻¹ | 0.00496 s⁻¹ | 0.0647 s⁻¹ | 3.51e+06 M⁻¹ s⁻¹ | H3L5 (antibody, V domains shown) VH: QVQLVQSGAEVKKPGASVKMSCKASGYTFTRYTMHWVRQAPGQGLEWIGYINPSRGYTNYNQKFKDRATMTTDKSISTAYMELSRLRSDDTAVYYCARYYDDHYSLDYWGQGTTLTVSS VL: DIQMTQSPSSLSASVGDRVTITCSASSSVSYMNWYQQKPGKAPKRWIYDTSKLASGVPSRFSGSGSGTDFTLTISSLQPEDFATYYCQQWSSNPFTFGSGTKLEINR
1.38 nM | 0.0191 s⁻¹ | 0.000815 s⁻¹ | 0.402 s⁻¹ | 1.19e+07 M⁻¹ s⁻¹ | H3L3 (antibody, V domains shown) VH: QVQLVQSGAEVKKPGASVKMSCKASGYTFTRYTMHWVRQAPGQGLEWIGYINPSRGYTNYNQKFKDRATMTTDKSISTAYMELSRLRSDDTAVYYCARYYDDHYSLDYWGQGTTLTVSS VL: DIQLTQSPSSLSASVGDRVTITCSASSSVSYMNWYQQKPGKAPKLLIYDTSKLASGVPSRFSGSGSGTDYTLTISSLQPEDFATYYCQQWSSNPFTFGSGTKLEINR
15.3 nM | 0.026 s⁻¹ | 0.00294 s⁻¹ | 0.217 s⁻¹ | 1.44e+06 M⁻¹ s⁻¹ | H4L2 (antibody, V domains shown) VH: QVQLQQSGAEVKKPGASVKMSCKASGYTFTRYTMHWVRQAPGQGLEWIGYINPSRGYTNYNQKFKDRVTLTTDTSISTAYMELSRLRSDDTAVYYCARYYDDHYSLDYWGQGTTLTVSS VL: DIQMTQSPSSLSASVGDRVTMTCSASSSVSYMNWYQQKPGKAPKLLIYDTSKLASGVPSRFSGSGSGTDFTLTISSMQPEDFATYYCQQWSSNPFTFGSGTKLEINR
9.96 nM | 0.0041 s⁻¹ | 0.000744 s⁻¹ | 0.141 s⁻¹ | 2.17e+06 M⁻¹ s⁻¹ | H4L5 (antibody, V domains shown) VH: QVQLQQSGAEVKKPGASVKMSCKASGYTFTRYTMHWVRQAPGQGLEWIGYINPSRGYTNYNQKFKDRVTLTTDTSISTAYMELSRLRSDDTAVYYCARYYDDHYSLDYWGQGTTLTVSS VL: DIQMTQSPSSLSASVGDRVTITCSASSSVSYMNWYQQKPGKAPKRWIYDTSKLASGVPSRFSGSGSGTDFTLTISSLQPEDFATYYCQQWSSNPFTFGSGTKLEINR
0.892 nM | 0.0268 s⁻¹ | 0.000814 s⁻¹ | 0.0986 s⁻¹ | 3.26e+06 M⁻¹ s⁻¹ | H2L2 (antibody, V domains shown) VH: QVQLQQSGAEVAKPGASVKVSCKASGYTFTRYTMHWVRQAPGQGLEWMGYINPSRGYTNYNQKFKDRATLTRDKSISTAYMELSRLRSDDTAVYYCARYYDDHYSLDYWGQGTTLTVSS VL: DIQMTQSPSSLSASVGDRVTMTCSASSSVSYMNWYQQKPGKAPKLLIYDTSKLASGVPSRFSGSGSGTDFTLTISSMQPEDFATYYCQQWSSNPFTFGSGTKLEINR
0.808 nM | 0.026 s⁻¹ | 0.000779 s⁻¹ | 0.0979 s⁻¹ | 3.52e+06 M⁻¹ s⁻¹ | H2L1 (antibody, V domains shown) VH: QVQLQQSGAEVAKPGASVKVSCKASGYTFTRYTMHWVRQAPGQGLEWMGYINPSRGYTNYNQKFKDRATLTRDKSISTAYMELSRLRSDDTAVYYCARYYDDHYSLDYWGQGTTLTVSS VL: DIQMTQSPSSLSASVGDRVTMTCSASSSVSYMNWYQQKPGKAPKRLIYDTSKLASGVPSRFSGSGSGTDFTLTISSLQPEDFATYYCQQWSSNPFTFGSGTKLEINR
12.4 nM | 0.00534 s⁻¹ | 0.000594 s⁻¹ | 0.251 s⁻¹ | 2.02e+06 M⁻¹ s⁻¹ | H4L6 (antibody, V domains shown) VH: QVQLQQSGAEVKKPGASVKMSCKASGYTFTRYTMHWVRQAPGQGLEWIGYINPSRGYTNYNQKFKDRVTLTTDTSISTAYMELSRLRSDDTAVYYCARYYDDHYSLDYWGQGTTLTVSS VL: DIQMTQSPSSLSASVGDRVTITCSASSSVSYMNWYQQKPGKAPKLWIYDTSKLASGVPSRFSGSGSGTDYTLTISSLQPEDFATYYCQQWSSNPFTFGSGTKLEINR

More lines, now with the values behind:

Molecule | Kd | ka2 | kd2 | koff | kon
OKT3-chimeric (antibody) | 0.622 nM | 0.0105 s⁻¹ | 0.00194 s⁻¹ | 0.138 s⁻¹ | 3.44e+07 M⁻¹ s⁻¹
H4L1 (antibody, V domains shown) VH: QVQLQQSGAEVKKPGASVKMSCKASGYTFTRYTMHWVRQAPGQGLEWIGYINPSRGYTNYNQKFKDRVTLTTDTSISTAYMELSRLRSDDTAVYYCARYYDDHYSLDYWGQGTTLTVSS VL: DIQMTQSPSSLSASVGDRVTMTCSASSSVSYMNWYQQKPGKAPKRLIYDTSKLASGVPSRFSGSGSGTDFTLTISSLQPEDFATYYCQQWSSNPFTFGSGTKLEINR | 7.49 nM | 0.0282 s⁻¹ | 0.0023 s⁻¹ | 0.176 s⁻¹ | 1.77e+06 M⁻¹ s⁻¹
H2L5 (antibody, V domains shown) VH: QVQLQQSGAEVAKPGASVKVSCKASGYTFTRYTMHWVRQAPGQGLEWMGYINPSRGYTNYNQKFKDRATLTRDKSISTAYMELSRLRSDDTAVYYCARYYDDHYSLDYWGQGTTLTVSS VL: DIQMTQSPSSLSASVGDRVTITCSASSSVSYMNWYQQKPGKAPKRWIYDTSKLASGVPSRFSGSGSGTDFTLTISSLQPEDFATYYCQQWSSNPFTFGSGTKLEINR | 2.55 nM | 0.0127 s⁻¹ | 0.00369 s⁻¹ | 0.0567 s⁻¹ | 5.02e+06 M⁻¹ s⁻¹
H2L3 (antibody, V domains shown) VH: QVQLQQSGAEVAKPGASVKVSCKASGYTFTRYTMHWVRQAPGQGLEWMGYINPSRGYTNYNQKFKDRATLTRDKSISTAYMELSRLRSDDTAVYYCARYYDDHYSLDYWGQGTTLTVSS VL: DIQLTQSPSSLSASVGDRVTITCSASSSVSYMNWYQQKPGKAPKLLIYDTSKLASGVPSRFSGSGSGTDYTLTISSLQPEDFATYYCQQWSSNPFTFGSGTKLEINR | 0.619 nM | 0.0228 s⁻¹ | 0.000719 s⁻¹ | 0.13 s⁻¹ | 6.42e+06 M⁻¹ s⁻¹
H3L4 (antibody, V domains shown) VH: QVQLVQSGAEVKKPGASVKMSCKASGYTFTRYTMHWVRQAPGQGLEWIGYINPSRGYTNYNQKFKDRATMTTDKSISTAYMELSRLRSDDTAVYYCARYYDDHYSLDYWGQGTTLTVSS VL: DIQLTQSPSSLSASVGDRVTITCSASSSVSYMNWYQQKPGKAPKLLIYDTSKLASGVPSRFSGSGSGTDFTLTISSMQPEDFATYYCQQWSSNPFTFGSGTKLEINR | 1.33 nM | 0.0213 s⁻¹ | 0.000744 s⁻¹ | 0.119 s⁻¹ | 3.03e+06 M⁻¹ s⁻¹
H3L6 (antibody, V domains shown) VH: QVQLVQSGAEVKKPGASVKMSCKASGYTFTRYTMHWVRQAPGQGLEWIGYINPSRGYTNYNQKFKDRATMTTDKSISTAYMELSRLRSDDTAVYYCARYYDDHYSLDYWGQGTTLTVSS VL: DIQMTQSPSSLSASVGDRVTITCSASSSVSYMNWYQQKPGKAPKLWIYDTSKLASGVPSRFSGSGSGTDYTLTISSLQPEDFATYYCQQWSSNPFTFGSGTKLEINR | 8.84 nM | 0.00491 s⁻¹ | 0.00243 s⁻¹ | 0.0814 s⁻¹ | 3.05e+06 M⁻¹ s⁻¹
H4L3 (antibody, V domains shown) VH: QVQLQQSGAEVKKPGASVKMSCKASGYTFTRYTMHWVRQAPGQGLEWIGYINPSRGYTNYNQKFKDRVTLTTDTSISTAYMELSRLRSDDTAVYYCARYYDDHYSLDYWGQGTTLTVSS VL: DIQLTQSPSSLSASVGDRVTITCSASSSVSYMNWYQQKPGKAPKLLIYDTSKLASGVPSRFSGSGSGTDYTLTISSLQPEDFATYYCQQWSSNPFTFGSGTKLEINR | 14.7 nM | 0.0205 s⁻¹ | 0.00238 s⁻¹ | 0.264 s⁻¹ | 1.88e+06 M⁻¹ s⁻¹
H3L1 (antibody, V domains shown) VH: QVQLVQSGAEVKKPGASVKMSCKASGYTFTRYTMHWVRQAPGQGLEWIGYINPSRGYTNYNQKFKDRATMTTDKSISTAYMELSRLRSDDTAVYYCARYYDDHYSLDYWGQGTTLTVSS VL: DIQMTQSPSSLSASVGDRVTMTCSASSSVSYMNWYQQKPGKAPKRLIYDTSKLASGVPSRFSGSGSGTDFTLTISSLQPEDFATYYCQQWSSNPFTFGSGTKLEINR | 1.16 nM | 0.0229 s⁻¹ | 0.000831 s⁻¹ | 0.155 s⁻¹ | 4.67e+06 M⁻¹ s⁻¹
H4L4 (antibody, V domains shown) VH: QVQLQQSGAEVKKPGASVKMSCKASGYTFTRYTMHWVRQAPGQGLEWIGYINPSRGYTNYNQKFKDRVTLTTDTSISTAYMELSRLRSDDTAVYYCARYYDDHYSLDYWGQGTTLTVSS VL: DIQLTQSPSSLSASVGDRVTITCSASSSVSYMNWYQQKPGKAPKLLIYDTSKLASGVPSRFSGSGSGTDFTLTISSMQPEDFATYYCQQWSSNPFTFGSGTKLEINR | 13.9 nM | 0.0212 s⁻¹ | 0.0023 s⁻¹ | 0.248 s⁻¹ | 1.75e+06 M⁻¹ s⁻¹
H3L2 (antibody, V domains shown) VH: QVQLVQSGAEVKKPGASVKMSCKASGYTFTRYTMHWVRQAPGQGLEWIGYINPSRGYTNYNQKFKDRATMTTDKSISTAYMELSRLRSDDTAVYYCARYYDDHYSLDYWGQGTTLTVSS VL: DIQMTQSPSSLSASVGDRVTMTCSASSSVSYMNWYQQKPGKAPKLLIYDTSKLASGVPSRFSGSGSGTDFTLTISSMQPEDFATYYCQQWSSNPFTFGSGTKLEINR | 1.75 nM | 0.0234 s⁻¹ | 0.000939 s⁻¹ | 0.139 s⁻¹ | 3.06e+06 M⁻¹ s⁻¹
H2L4 (antibody, V domains shown) VH: QVQLQQSGAEVAKPGASVKVSCKASGYTFTRYTMHWVRQAPGQGLEWMGYINPSRGYTNYNQKFKDRATLTRDKSISTAYMELSRLRSDDTAVYYCARYYDDHYSLDYWGQGTTLTVSS VL: DIQLTQSPSSLSASVGDRVTITCSASSSVSYMNWYQQKPGKAPKLLIYDTSKLASGVPSRFSGSGSGTDFTLTISSMQPEDFATYYCQQWSSNPFTFGSGTKLEINR | 0.642 nM | 0.0234 s⁻¹ | 0.000671 s⁻¹ | 0.0814 s⁻¹ | 3.54e+06 M⁻¹ s⁻¹
H2L6 (antibody, V domains shown) VH: QVQLQQSGAEVAKPGASVKVSCKASGYTFTRYTMHWVRQAPGQGLEWMGYINPSRGYTNYNQKFKDRATLTRDKSISTAYMELSRLRSDDTAVYYCARYYDDHYSLDYWGQGTTLTVSS VL: DIQMTQSPSSLSASVGDRVTITCSASSSVSYMNWYQQKPGKAPKLWIYDTSKLASGVPSRFSGSGSGTDYTLTISSLQPEDFATYYCQQWSSNPFTFGSGTKLEINR | 5.68 nM | 0.0101 s⁻¹ | 0.00581 s⁻¹ | 0.0638 s⁻¹ | 4.1e+06 M⁻¹ s⁻¹
